# In article PMC6638009 (Molecular Plant Pathology, 2018):
# B1: His-tagged Xa5 (OsTFIIAγ5), labelled with NT-647 (natural protein, rice (Oryza sativa), UniProt A2XZI2 1-106, looked up)
# chain: MATFELYRRSTIGMCLTETLDEMVSSGTLSPELAIQVLVQFDKSMTEALENQVKSKVSIKGHLHTYRFCDNVWTFILTEASFKNEETTEQVGKVKIVACDSKLLSQ
# modifications: amine-reactive red fluorescent dye NT-647
# Experiments:
# His-tagged AvrXa27 = His-tagged AvrXa27 (Xanthomonas oryzae pv. oryzae, UniProt A0A0K0GNW2 1-1136); experiment: MST; […]; 50 mM Tris-HCl pH 7.8, 150 mM NaCl, 10 mM MgCl2, 0.05% Tween-20; 25°C; […]; settings: both partners purified
# His-tagged PthXo1 = His-tagged PthXo1 (Xanthomonas oryzae pv. oryzae, UniProt B2SU53 1-1373); experiment: as above; settings: both partners purified
binder,measurement,setting,value
B1,Kd,His-tagged AvrXa27,< 1 µM
same,Kd,His-tagged PthXo1,< 1 µM
